Reference: paper PMC10912200 (Nature Communications, 2024)

T1: TcsH^2210-2618, His-tagged (Paeniclostridium sordellii, UniProt M9ZTT7 2210-2618)
T1 construct: not shown: His, C-terminal, kept
T1 sequence: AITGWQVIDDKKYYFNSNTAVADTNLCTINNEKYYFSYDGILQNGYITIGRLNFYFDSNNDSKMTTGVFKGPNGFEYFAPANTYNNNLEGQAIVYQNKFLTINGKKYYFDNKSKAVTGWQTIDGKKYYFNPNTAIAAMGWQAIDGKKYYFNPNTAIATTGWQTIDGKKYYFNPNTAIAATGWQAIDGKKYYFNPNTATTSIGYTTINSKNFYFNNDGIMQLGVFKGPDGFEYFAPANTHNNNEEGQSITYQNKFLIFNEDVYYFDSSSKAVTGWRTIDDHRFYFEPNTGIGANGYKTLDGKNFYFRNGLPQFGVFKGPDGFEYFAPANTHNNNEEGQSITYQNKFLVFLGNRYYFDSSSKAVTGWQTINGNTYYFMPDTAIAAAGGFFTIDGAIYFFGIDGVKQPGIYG

T2: MBP-fused TcsH^2236-2618 (Paeniclostridium sordellii, UniProt M9ZTT7 2236-2618)
T2 construct: source: E. coli BL21(DE3), purified (Amylose resin, SEC)
T2 sequence: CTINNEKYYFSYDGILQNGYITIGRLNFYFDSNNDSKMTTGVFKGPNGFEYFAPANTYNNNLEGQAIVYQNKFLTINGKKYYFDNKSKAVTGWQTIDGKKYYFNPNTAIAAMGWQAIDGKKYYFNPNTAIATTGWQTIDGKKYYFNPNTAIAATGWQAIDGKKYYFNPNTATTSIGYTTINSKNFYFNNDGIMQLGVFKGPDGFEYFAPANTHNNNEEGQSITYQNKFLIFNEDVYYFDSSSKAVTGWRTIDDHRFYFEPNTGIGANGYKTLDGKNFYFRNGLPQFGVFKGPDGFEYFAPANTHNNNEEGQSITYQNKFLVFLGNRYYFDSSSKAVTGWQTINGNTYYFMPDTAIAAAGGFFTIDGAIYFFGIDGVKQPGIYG


How the values were obtained:
Details in all cases: both partners purified
[1] = target: T1, TcsH^2210-2618, His-tagged; assay: pull-down
MBP-fused TcsH^2236-2618 = target: T2, MBP-fused TcsH^2236-2618; assay: BLI
[2] = target: T1, TcsH^2210-2618, His-tagged; assay: BLI

| Binder | binding result [1] | Kd (MBP-fused TcsH^2236-2618) [nM] | Kd [2] [nM] |
| --- | --- | --- | --- |
| Fc-His-TMPRSS2^ECD [change] (Fc fusion, source: Expi293F, transfected, purified from the supernatant (TALON resin, SEC)) WKFMGSKCSNSGIECDSSGTCINPSNWCDGVSHCPGGEDENRCVRLYGPNFILQVYSSQRKSWHPVCQDDWNENYGRAACRDMGYKNNFYSSQGIVDDSGSTSFMKLNTSAGNVDIYKKLYHSDACSSKAVVSLRCIACGVNLNSSRQSQIVGGESALPGAWPWQVSLHVQNVHVCGGSIITPEWIVTAAHCVEKPLNNPWHWTAFAGILRQSFMFYGAGYQVEKVISHPNYDSKTKNNDIALMKLQKPLTFNDLVKPVCLPNPGMMLQPEQLCWISGWGATEEKGKTSEVLNAAKVLLIETQRCNSRYVYANLITPAMICAGFLQGNVDSCQGDSGGPLVTSKNNIWWLIGDTSWGSGCAKAYRPGVYGNVMVFTDWIYRQMRADG | binds | – | – |
| Fc-His-TMPRSS2^ECD (Fc fusion) WKFMGSKCSNSGIECDSSGTCINPSNWCDGVSHCPGGEDENRCVRLYGPNFILQVYSSQRKSWHPVCQDDWNENYGRAACRDMGYKNNFYSSQGIVDDSGSTSFMKLNTSAGNVDIYKKLYHSDACSSKAVVSLRCIACGVNLNSSRQSQIVGGESALPGAWPWQVSLHVQNVHVCGGSIITPEWIVTAAHCVEKPLNNPWHWTAFAGILRQSFMFYGAGYQVEKVISHPNYDSKTKNNDIALMKLQKPLTFNDLVKPVCLPNPGMMLQPEQLCWISGWGATEEKGKTSEVLNAAKVLLIETQRCNSRYVYDNLITPAMICAGFLQGNVDSCQGDSGGPLVTSKNNIWWLIGDTSWGSGCAKAYRPGVYGNVMVFTDWIYRQMRADG | – | 0.75 | 0.37 |
| Fc-His-TMPRSS2^ECD [change] (Fc fusion, source: Expi293F, transfected, purified from the supernatant (TALON resin, SEC)) WKFMGSKCSNSGIECDSSGTCINPSNWCDGVSHCPGGEDENRCVRLYGPNFILQVYSSQRKSWHPVCQDDWNENYGRAACRDMGYKNNFYSSQGIVDDSGSTSFMKLNTSAGNVDIYKKLYHSDACSSKAVVSLRCIACGVNLNSSRQSQIVGGESALPGAWPWQVSLHVANVHVCGGSIITPEWIVTAAHCVEKPLNNPWHWTAFAGILRQSFMFYGAGYQVEKVISHPNYDSKTKNNDIALMKLQKPLTFNDLVKPVCLPNPGMMLQPEQLCWISGWGATEEKGKTSEVLNAAKVLLIETQRCNSRYVYDNLITPAMICAGFLQGNVDSCQGDSGGPLVTSKNNIWWLIGDTSWGSGCAKAYRPGVYGNVMVFTDWIYRQMRADG | binds | – | – |
| Fc-His-TMPRSS2^ECD [change] (Fc fusion, source: Expi293F, transfected, purified from the supernatant (TALON resin, SEC)) WKFMGSKCSNSGIECDSSGTCINPSNWCDGVSHCPGGEDENRCVRLYGPNFILQVYSSQRKSWHPVCQDDWNENYGRAACRDMGYKNNFYSSQGIVDDSGSTSFMKLNTSAGNVDIYKKLYHSDACSSKAVVSLRCIACGVNLNSSRQSQIVGGESALPGAWPWQVSLHVQNVHVCGGSIITPEWIVTAAHCVEKPLNNPWAWTAFAGILRQSFMFYGAGYQVEKVISHPNYDSKTKNNDIALMKLQKPLTFNDLVKPVCLPNPGMMLQPEQLCWISGWGATEEKGKTSEVLNAAKVLLIETQRCNSRYVYDNLITPAMICAGFLQGNVDSCQGDSGGPLVTSKNNIWWLIGDTSWGSGCAKAYRPGVYGNVMVFTDWIYRQMRADG | binds | – | – |
| Fc-His-TMPRSS2^ECD [change] (Fc fusion, source: Expi293F, transfected, purified from the supernatant (TALON resin, SEC)) WKFMGSKCSNSGIECDSSGTCINPSNWCDGVSHCPGGEDENRCVRLYGPNFILQVYSSQRKSWHPVCQDDWNENYGRAACRDMGYKNNFYSSQGIVDDSGSTSFMKLNTSAGNVDIYKKLYHSDACSSKAVVSLRCIACGVNLNSSRQSQIVGGESALPGAWPWQVSLHVQNVHVCGGSIITPEWIVTAAHCVEKPRNNPWHWTAFAGILRQSFMFYGAGYQVEKVISHPNYDSKTKNNDIALMKLQKPLTFNDLVKPVCLPNPGMMLQPEQLCWISGWGATEEKGKTSEVLNAAKVLLIETQRCNSRYVYDNLITPAMICAGFLQGNVDSCQGDSGGPLVTSKNNIWWLIGDTSWGSGCAKAYRPGVYGNVMVFTDWIYRQMRADG | binds | – | – |
| Fc-His-TMPRSS2^ECD [change] (Fc fusion, source: Expi293F, transfected, purified from the supernatant (TALON resin, SEC)) WKFMGSKCSNSGIECDSSGTCINPSNWCDGVSHCPGGEDENRCVRLYGPNFILQVYSSQRKSWHPVCQDDWNENYGRAACRDMGYKNNFYSSQGIVDDSGSTSFMKLNTSAGNVDIYKKLYHSDACSSKAVVSLRCIACGVNLNSSRQSQIVGGESALPGAWPWQVSLHVQNVHVCGGSIITPEWIVTAAHCVEKPLNNPWHWTAFAGILRQSFMFYGAGYQVEKVISHPNYDSKTKNNDIALMKLQKPLTFNDLVKPVCLPNPGMMLQPEQLCWISGWGATEEKGKTSEVLNAAKVLLIETQRCNSRYVYDNRITPAMICAGFLQGNVDSCQGDSGGPLVTSKNNIWWLIGDTSWGSGCAKAYRPGVYGNVMVFTDWIYRQMRADG | binds | – | – |
| Fc-His-TMPRSS2^ECD [change] (Fc fusion, source: Expi293F, transfected, purified from the supernatant (TALON resin, SEC)) WKFMGSKCSNSGIECDSSGTCINPSNWCDGVSHCPGGEDENRCVRLYGPNFILQVYSSQRKSWHPVCQDDWNENYGRAACRDMGYKNNFYSSQGIVDDSGSTSFMKLNTSAGNVDIYKKLYHSDACSSKAVVSLRCIACGVNLNSSRQSQIVGGESALPGAWPWQVSLHRQNVHVCGGSIITPEWIVTAAHCVEKPLNNPWHWTAFAGILRQSFMFYGAGYQVEKVISHPNYDSKTKNNDIALMKLQKPLTFNDLVKPVCLPNPGMMLQPEQLCWISGWGATEEKGKTSEVLNAAKVLLIETQRCNSRYVYDNLITPAMICAGFLQGNVDSCQGDSGGPLVTSKNNIWWLIGDTSWGSGCAKAYRPGVYGNVMVFTDWIYRQMRADG | binds | – | – |
